In publication PMC314469, “Protein Interaction Networks by Proteome Peptide Scanning” (PLoS Biology, 2004):

What was measured:
[1] = biological target: T1, amphyphisin SH3 (AMPH_HUMAN), P49418; assay: SPOT array
T1 chain: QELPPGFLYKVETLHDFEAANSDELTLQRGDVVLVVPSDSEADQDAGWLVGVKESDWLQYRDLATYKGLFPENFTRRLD

[2] = biological target: endophilin SH3 (SH3G2_HUMAN), Q99962; assay: SPOT array

normalised SPOT signal, Boehringer light units (BLU); mean over the file's lines of this peptide [1] | normalised SPOT signal, Boehringer light units (BLU); mean over the file's lines of this peptide [2] | Binder
39.4 | 39.1 | SGPDLRRPPTPAPW [Q96IB8 451-464]
7990 | 210 | SGVLLVRPSRLSSS [P11362 439-452]
22.9 | 11.3 | SGLAPKRPGPAGEL [Q16849 127-140]
147 | 153 | SGTALLRPLRPKPP [Q92766 106-119]
30.4 | 1390 | SHHPPDRPPDPFST [Q8TA97 483-497]
14900 | 17200 | SGPGPARPARARPR [P53539 130-143]
2520 | 418 | AAVAPSRPGREPQA [Q9ULI4 780-793]
340 | 2730 | SIHPPGRPPAVRGP [P50570 773-787]
4230 | 2420 | SAGPPSRPQRPFSA [O43257 105-118]
1310 | 629 | SGMAFPRPKRPAPA [Q9BQ84 245-258]
24.4 | 18.9 | SGNSLKRPDTTESL [Q96SU4 326-339]
3.3 | 148 | SGTPIRRPMGQMKP [P16930 169-182]
67.4 | 44.7 | SGLRLRRPRVSSTE [Q9H3P9 250-263]
41.6 | 40.3 | SGSKLKRPTPTFHS [Q9UPN3 5307-5320]
3680 | 3720 | SGSRPRKPPPRKHT [Q9P189 81-95]
27.1 | 47.4 | SALSLRRPHSGWSA [O75097 1019-1032]
44.7 | 31 | SHGSPRRPGPEPGA [O95180 532-545]
